The record followed here is patent US20070298510A1 (CANON, published 2007).

In the assay the target is T1, hen egg-white lysozyme (hen, UniProt P00698 19-147).
T1 construct: In solution in phosphate-buffered saline, captured in a sandwich between the first and second peptide molecules; also called HEL; target substance 173
The experiment in a line: sandwich on TMR element: immobilized scFv, HEL, Fab on magnetic beads; magnetic read-out.

T1 sequence (P00698 19-147): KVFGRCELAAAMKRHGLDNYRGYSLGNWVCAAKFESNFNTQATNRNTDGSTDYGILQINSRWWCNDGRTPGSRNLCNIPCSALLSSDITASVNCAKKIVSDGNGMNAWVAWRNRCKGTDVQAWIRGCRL

B1: HyHEL10 scFv (single chain Fv of an anti-HEL antibody) (scFv)
scFv: DIVLTQSPATLSVTPGNSVSLSCRASQSIGNNLHWYQQKSHESPRLLIKYASQSISGIPSRFSGSGSGTDFTLSINSVETEDFGMYFCQQSNSWPYTFGGGTKLIITAGGGGSGGGGSGGGGSDIQLQESGPSLVKPSQTLSLTCSVTGDSITSDYWSWIRKFPGNRLEYMGYVSYSGSTYYNPSLKSRISITRDTSKNQYYLDLNSVTTEDTATYYCANWDGDYWGQGTLVTVSA
notes: Purified as a His-tag-fused polypeptide; In the assay it was immobilized on the silicon film or substrate via aminosilane and glutaraldehyde; also called scFv of the anti-HEL antibody; scFv of the HEL antibody
On to B1, for which the binding result was “binds”.
